Values of other authors, collected in paper PMC4666935.

Columns and labels:
[1] = target: uPA-PAI-1 complex (Homo sapiens) (UniProt P00749)
PAI-1 (Homo sapiens) = PAI-1 (Homo sapiens) (UniProt P05121)
Sequence of PAI-1 (Homo sapiens) (P05121 24-402): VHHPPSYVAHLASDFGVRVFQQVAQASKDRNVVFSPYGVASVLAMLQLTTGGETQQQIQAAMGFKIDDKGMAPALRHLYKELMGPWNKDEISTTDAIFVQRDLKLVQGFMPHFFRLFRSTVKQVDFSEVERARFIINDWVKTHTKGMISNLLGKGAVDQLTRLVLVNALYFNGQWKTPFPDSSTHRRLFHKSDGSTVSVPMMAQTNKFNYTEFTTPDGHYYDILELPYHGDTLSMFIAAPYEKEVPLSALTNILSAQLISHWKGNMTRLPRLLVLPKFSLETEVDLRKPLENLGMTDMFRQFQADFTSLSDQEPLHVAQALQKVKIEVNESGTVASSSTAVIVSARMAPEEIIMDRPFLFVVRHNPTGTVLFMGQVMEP

Sequence of vasoinhibin (P01236 29-227): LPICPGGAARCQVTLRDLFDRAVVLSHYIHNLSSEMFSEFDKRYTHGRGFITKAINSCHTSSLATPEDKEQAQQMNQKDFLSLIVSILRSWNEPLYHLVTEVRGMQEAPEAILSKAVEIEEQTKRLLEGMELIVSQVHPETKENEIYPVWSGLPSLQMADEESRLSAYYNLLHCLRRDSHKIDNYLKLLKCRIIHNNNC
Sequence of uPA-PAI-1 complex (Homo sapiens) (P05121 24-402, chain 2 of 2, other chains not shown): as the sequence (P05121 24-402) above

vasoinhibin (from UniProt P01236)
Kd [1]: 500 nM
Kd (PAI-1 (Homo sapiens)): 1000 nM
